Data as given in patent US20110171194A1 (TRUSTEES OF COLUMBIA UNIVERSITY IN THE CITY OF NEW YORK, published 2011).

Molecular target: T1, Aβ(1-42) (UniProt P05067 672-713)
T1 construct: domain: Aβ(1-42); Residue numbers count on Aβ, not on APP
Assay: 125I-labeled GST-ABAD truncation binding to immobilized Aβ(1-42)

T1 sequence (P05067 672-713 limits assumed): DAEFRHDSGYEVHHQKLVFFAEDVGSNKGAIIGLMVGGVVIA

B1: GST-ABAD(159-261) (other, UniProt Q99714 159-261, looked up)
chain: FEGQVGQAAYSASKGGIVGMTLPIARDLAPIGIRVMTIAPGLFGTPLLTSLPEKVCNFLASQVPFPSRLGDPAEYAHLVQAIIENPFLNGEVIRLDGAIRMQP
modifications: 125I-labeled
notes: not shown: glutathione S-transferase (GST) tag
binding result: no binding
